Results reported in patent US20110076723A1, “ANTIBODY-PEPTIDE FUSED SYNERGIBODY” (SAMSUNG ELECTRONICS CO., LTD., priority 2008, published 2011).

B1: Syn-Ang-VEGFR-20 (other)
heavy (part 1 of 2): QVQLQQSGAELARPGASVKLSCKASGYTFTDYYINWAKQRTGQGLEWIGEIYPGSGDTYYNEKFKGKATLTADKSSSTAYMQLSSLTSEDSAVYFCARYGYKGVYFDYWGQSTTLTVSS
heavy (part 2 of 2): PGSQGYCHLNMRYQWICDSE
light: ENVLTQSPAIMAASLGQKVTMTCSASSSVSSSYLHWYQQKSGASPKPLIHRTSNLASGVPARFSGSGSGTSYSLTISSVEAEDDATYYCQQWSGYPFTFGAGTKLELK
notes: Chimeric (human IgG1) SAITAng-2-4 with the peptide at the C-terminus of the heavy chain; also called SAITAng-2-4 x DTN11VEGFR-2-5; not shown: human IgG1 heavy chain constant region with Fc region, from the vector; human light chain constant region, printed as 'constant region of human IgG1'
B2: Syn-Ang-VEGFR-19 (other)
heavy (part 1 of 2): B1 heavy (part 1 of 2)
heavy (part 2 of 2): TGSGRMCDGSGPPTNCWFT
light: B1 light
notes: Chimeric (human IgG1) SAITAng-2-4 with the peptide at the C-terminus of the heavy chain; also called SAITAng-2-4 x DTN10VEGFR-2-4; not shown: human IgG1 heavy chain constant region with Fc region, from the vector; human light chain constant region, printed as 'constant region of human IgG1'
B3: Syn-Ang-VEGFR-18 (other)
heavy (part 1 of 2): B1 heavy (part 1 of 2)
heavy (part 2 of 2): EAGAYWCKAWGLSPCLVT
light: B1 light
notes: Chimeric (human IgG1) SAITAng-2-4 with the peptide at the C-terminus of the heavy chain; also called SAITAng-2-4 x DTN9VEGFR-2-3; not shown: human IgG1 heavy chain constant region with Fc region, from the vector; human light chain constant region, printed as 'constant region of human IgG1'
B4: SAITAng-2-3 (antibody, V domains shown)
VH: DVQLVESGGGLVQPGGSRKLSCAASGFTFSSFGMHWVRQAPEKGLEWVAYISSDSSTIYYADTVKGRFTISRDNPKNTLFLQMTSLRSEDTAMYYCAREGGYDDYYAMDYWGQGTSVTVSS
VL: DIQMTQSPASQSASLGESVTITCLASQTIGTWLAWYQQKPGKSPQLLIYAATSLADGVPSRFSGSGSGTKFSFKISSLQAEDFVSYYCQQLYSIPLTFGGGTKLEIK
notes: Mouse monoclonal anti-Ang-2 antibody purified from hybridoma culture
B5: SAITAng-2-2 (antibody, V domains shown)
VH: QVQLQQSGPELVKPGASVKMSCKASGYTFTDYVISWVKQRTGQGLEWIGEIYPGSGSTYYNEKFKGKASLTADKSSNTAYMQLSSLTSADSAVYFCVRSRGDYYAMDYWGQGTSVTVSS
VL: DIQMTQSPSSLSASLGGKVTITCKASQDINNYITWYQHKPGKGPRLLIHYTSTLQPGIPSRFSGSGSGRDYSFSISNLEPEDIATYYCLQYDNLLTFGGGTKLEIK
notes: as for B4
B6: SAITAng-2-4 (antibody, V domains shown)
VH: B1 heavy (part 1 of 2)
VL: B1 light
notes: as for B4

Target: T1, recombinant VEGFR-2 protein (water soluble extracellular site of human VEGFR-2 with Fc of human IgG1 … (human, UniProt P35968 20-764))
T1 construct: extracellular domain; Bought; not shown: Fc of human IgG1
Assay: competitive ELISA; synergibody titrated with 1 nM VEGFR-2 on coated VEGF 165
Settings: not given
Method: Competitive ELISA is performed using the peptides synthesized above in Section 6A in order to assess the molecular interaction of the binders. […] Then the plate is washed five times with PBS containing 0.1% Tween-20, and blocked at room temperature for two hours with PBS containing 5% BSA. For VEGF:VEGFR-2 neutralization ELISA, each of the peptides synthesized in Section 6A above are diluted to one-fourth each time from 100 nM with PBS containing 1 nM VEGFR-2 and 1% BSA, and adjusted to 6.1 pM. 100 μl of peptide/VEGFR-2 solution is added to each well and the plate is left to react at room temperature for two hours. Subsequently, it is washed five times with PBS containing 0.1% Tween-20, mouse anti-VEGFR-2 antibodies (R&D Systems) is diluted to about 1:3,000 with PBS containing 1% BSA, and left to react at room temperature for one hour. Then 100 μl of goat anti-mouse-IgG-HRP (Pierce) diluted to about 1:10,000 with PBS containing 1% BSA is added to each well of the plate, left to react at room temperature for one hour, and washed five times with PBS containing 0.1% Tween-20. Lastly, 100 μl of TMB substrate (SIGMA) is added to each well of the plate to induce color reaction. The reaction is stopped by adding 50 μl of 5N H₂SO₄ solution, and the OD₄₅₀ value is read on a plate reader (Molecular Devices). Through the foregoing, the IC₅₀ value for the VEGF:VEGFR-2 binding capacity is obtained.
The method in Example 2, Section 6B above is used, except that, in the present example, each fused protein synergibodies are diluted from 100 nM to one-fourth each time with PBS containing 1% BSA and 1nM VEGFR-2 and adjusted to 6.1 pM for VEGF:VEGF-2 neutralization ELISA.

Molecule	IC50
B1	1.38 nM
B2	1.31 nM
B3	1.65 nM

Target: T2, recombinant hAng-2 (recombinant protein with His tag attached to human Ang-2; R&D Systems) (human, UniProt O15123 19-496)
T2 construct: also called angiopoietin-2; ANGPT2
T2 sequence (looked up): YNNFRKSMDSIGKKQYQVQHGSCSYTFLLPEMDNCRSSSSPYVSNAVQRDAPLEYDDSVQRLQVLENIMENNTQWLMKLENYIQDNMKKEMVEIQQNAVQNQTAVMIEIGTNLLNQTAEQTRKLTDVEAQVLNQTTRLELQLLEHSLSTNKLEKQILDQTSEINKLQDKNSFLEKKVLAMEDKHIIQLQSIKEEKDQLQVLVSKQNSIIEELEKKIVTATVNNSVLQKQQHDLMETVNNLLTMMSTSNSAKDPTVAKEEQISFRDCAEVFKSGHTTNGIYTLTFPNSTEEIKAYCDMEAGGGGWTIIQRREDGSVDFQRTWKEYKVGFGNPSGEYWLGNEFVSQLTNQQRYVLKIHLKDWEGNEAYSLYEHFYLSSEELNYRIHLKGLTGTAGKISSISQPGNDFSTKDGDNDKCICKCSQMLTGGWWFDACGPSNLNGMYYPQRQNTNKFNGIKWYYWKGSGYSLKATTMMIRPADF
Assay: SPR, BIAcore T100; hAng-2 amine-coupled on CM5, antibody 100 to 0.78125 nM
Settings: not given
Method: (§1) The SPR method using BIAcore T100 (GE Healthcare) is used to accurately measure the affinity to the Ang-2 antigens. 20 μg/ml recombinant hAng-2 (R&D Systems) is fixed on a sensor chip CM5 (GE Healthcare) using pH4.5 acetate solution and amine coupling kit (GE Healthcare). The antibodies obtained in Section 2 above are diluted to eight different concentrations down to 0.78125 nM by diluting to ½ each time starting from 100 nM. Then the antigen/antibody affinity is measured by causing the antigens to repeatedly bind and disassociate with the antibodies fixed on the sensor chip (using pH2.2 glycine-HCl solution).

Molecule	Kd	koff	kon
B4	0.603 nM	0.000302 s⁻¹	501000 M⁻¹ s⁻¹
B5	1.1 nM	0.000477 s⁻¹	433000 M⁻¹ s⁻¹
B6	0.931 nM	0.000477 s⁻¹	512000 M⁻¹ s⁻¹

Target: T2, recombinant hAng-2 (recombinant protein …)
Assay: competitive ELISA; synergibody titrated with 1 nM hAng-2 (His) on coated hTie2-Fc
Settings: not given
Method: (§2) A competitive ELISA is performed to assess the molecular interaction of the binders. A 96-well MaxiSorp™ flat-bottom plate (Nunc) is coated with hTie2-Fc (R&D Systems), which is a fused protein including the water-soluble extracellular portion of human Tie-2 and Fc of human IgG₁ dissolved in DMEM culture solution containing 50 μg/ml bovine serum albumin (BSA). The concentration of hTie2-Fc used as a coating material is equivalent to 75% of its maximum binding concentration with 1 nM of recombinant hAng-2 (recombinant protein with His tag attached to human Ang-2; R&D Systems). Then the plate is washed five times with Phosphate Buffer Saline (PBS) containing 0.1% Tween-20 and blocked at room temperature for two hours with PBS containing 5% BSA. Each anti-Ang-2 antibodies are diluted from 100 nM by one-fourth each time with PBS containing 1% BSA and 1 nM hAng-2 and adjusted to 6.1 pM for Ang-2:Tie-2 neutralization ELISA. 100 μl of antibody/hAng-2 solutions are placed in each corresponding well and left to react at room temperature for two hours. Then the wells are washed five times with PBS containing 0.1% Tween-20, and the anti-His antibodies (GE Healthcare) are diluted to about 1:3,000 with PBS containing 1% BSA and left to react at room temperature for one hour. Afterwards, 100 μl of goat anti-mouse-IgG-HRP (Pierce) diluted with PBS containing 1% BSA to about 1:10,000 is added to each well of the plate, left to react at room temperature for one hour, and washed with PBS containing 0.1% Tween-20 five times. Lastly, 100 μl of TMB substrate (SIGMA) is added to each well of the plate to induce color reaction, and the reaction is stopped by adding 50 μl of 5N H₂SO₄ solution. The OD₄₅₀ value is read on a plate reader (Molecular Devices).
The method described in Example 1, Section 3 above is used, except that, in the present example, each fused protein synergibodies are diluted from 100 nM to one-fourth each time with PBS containing 1% BSA and 1 nM hAng-2 and adjusted to 6.1 pM for Ang-2:Tie-2 neutralization ELISA.

Molecule	IC50
B1	1.35 nM
B2	1.28 nM
B3	1.39 nM

Target: T2, recombinant hAng-2 (recombinant protein …)
Assay: competitive ELISA; antibody titrated with 1 nM hAng-2 (His) on coated hTie2-Fc
Settings: not given
Method: as §2

Molecule	IC50
B4	0.822 nM
B5	1.86 nM
B6	1.01 nM

Target: T3, recombinant hAng-2 (Homo sapiens, UniProt O15123)
T3 construct: His tag; purchased R&D Systems
T3 sequence (O15123 19-496): T2 sequence (looked up)
Assay: Affinity to Ang-2 antigen by surface plasmon resonance (BIAcore T100)
Assay type: binding
Settings: SPR, hAng-2 on CM5 chip
Method: as §1

Molecule	Off Rate	On rate
B4	0.0003023 s⁻¹	501200 M⁻¹ s⁻¹
B5	0.0004769 s⁻¹	433200 M⁻¹ s⁻¹
B6	0.0004769 s⁻¹	512100 M⁻¹ s⁻¹

Target: T4, recombinant VEGFR-2 protein (water soluble extracellular site of human VEGFR-2 with Fc of human IgG1 connected thereto, R&D Systems) (human), P35968
T4 chain: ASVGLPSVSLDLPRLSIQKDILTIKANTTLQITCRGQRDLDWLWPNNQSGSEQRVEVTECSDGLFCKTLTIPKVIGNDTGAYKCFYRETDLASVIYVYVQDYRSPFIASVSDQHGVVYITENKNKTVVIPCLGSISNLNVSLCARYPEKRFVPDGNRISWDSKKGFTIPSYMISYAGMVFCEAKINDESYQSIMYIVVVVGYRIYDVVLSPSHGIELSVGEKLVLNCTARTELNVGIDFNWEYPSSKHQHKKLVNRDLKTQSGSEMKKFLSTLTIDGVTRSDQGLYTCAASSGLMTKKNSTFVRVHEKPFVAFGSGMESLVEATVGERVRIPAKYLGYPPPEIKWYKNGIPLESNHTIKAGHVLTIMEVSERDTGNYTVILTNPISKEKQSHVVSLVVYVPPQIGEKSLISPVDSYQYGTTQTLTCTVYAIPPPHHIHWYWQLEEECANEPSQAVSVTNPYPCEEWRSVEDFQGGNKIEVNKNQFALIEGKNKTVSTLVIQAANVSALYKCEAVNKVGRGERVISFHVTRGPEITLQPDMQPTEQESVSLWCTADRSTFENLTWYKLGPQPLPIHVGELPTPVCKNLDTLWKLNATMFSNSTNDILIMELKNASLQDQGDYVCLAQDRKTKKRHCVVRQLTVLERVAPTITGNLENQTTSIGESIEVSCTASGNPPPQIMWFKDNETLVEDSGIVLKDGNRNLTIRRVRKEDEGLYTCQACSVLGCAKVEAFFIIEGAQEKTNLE
Assay: competitive ELISA; peptide titrated with 1 nM VEGFR-2 on coated VEGF 165
Settings: not given

Molecule	IC50
TGSGRMCDGSGPPTNCWFT (modifications not checked) [DTN10VEGFR-2-4]	46.9 nM
EAGAYWCKAWGLSPCLVT (modifications not checked) [DTN9VEGFR-2-3]	61.9 nM
PGSQGYCHLNMRYQWICDSE (modifications not checked) [DTN11VEGFR-2-5]	50.7 nM
EAGKETCGYEWQYCPRP (modifications not checked) [DTN8VEGFR-2-2]	49.5 nM
TGSDDLCYTFPCMHY (modifications not checked) [DTN6VEGFR-2-1]	56.7 nM
